*1 amine or outer side, *2 acyl side, *3 side chain or, on linkers, in order; H or OH if unused. Bridges are numbered along the chain shown (N, C = ends). Where no end group is shown, it is not given here. [ ]: non-standard residue; d: D form. The star is where a group is joined. TATA = O=C(CC[*:1])N1CN(C(=O)CC[*:2])CN(C(=O)CC[*:3])C1; Phe(4-CF3) = N[C@@H](Cc1ccc(C(F)(F)F)cc1)C(=O)O; Phe(3-Me) = Cc1cccc(C[C@H](N)C(=O)O)c1; 2Nal = N[C@@H](Cc1ccc2ccccc2c1)C(=O)O; Pent4ynoyl = C#CCCC(=O)*; Aib = CC(C)(N)C(=O)O
B1: BCY20056 (peptide)
peptide: Ac-CSEYCF[2Nal]PFYHC
modifications: linker 1-5-12 via TATA
B2: BCY20575 (peptide)
peptide: CSEYCFWPFYXC
modifications: N-terminal acetyl (Ac); CiSEYCiiFWPFY[HArg]Ciii; Ci, Cii, Ciii on TATA scaffold
B3: BCY20102 (peptide)
peptide: CSEYCFWPFXHC
modifications: N-terminal acetyl (Ac); CiSEYCiiFWPF[K(PYA)]HCiii; Ci, Cii, Ciii on TATA scaffold
B4: BCY20220 (peptide)
peptide: Ac-CSEYCFWPFQYC
modifications: linker 1-5-12 via TATA
B5: BCY20221 (peptide)
peptide: Ac-CSYYCFWPFQYC
modifications: linker 1-5-12 via TATA
B6: BCY18219 (peptide)
peptide: CSEYCFWPFYHC-NH2
modifications: linker 1-5-12 via TATA
B7: BCY18218 (peptide)
peptide: Ac-ACSEYCFWPFYHCA-NH2
modifications: linker 2-6-13 via TATA
B8: BCY20101 (peptide)
peptide: Ac-CSEYCFWPK(Pent4ynoyl)YHC
modifications: linker 1-5-12 via TATA
B9: BCY20085 (peptide)
peptide: Ac-CSEYCFWPFYHCK(Pent4ynoyl)
modifications: linker 1-5-12 via TATA
B10: BCY20064 (peptide)
peptide: Ac-CSEYCF[Phe(3-Me)]PFYHC
modifications: linker 1-5-12 via TATA
B11: BCY19670 (peptide)
peptide: Ac-CSEYCFW[Aib]FYHC
modifications: linker 1-5-12 via TATA
B12: BCY20567 (peptide)
peptide: CSEYCXWPFYHC
modifications: N-terminal acetyl (Ac); CiSEYCii[4Pal]WPFYHCiii; Ci, Cii, Ciii on TATA scaffold
B13: BCY20080 (peptide)
peptide: CSEYCFWPFXHC
modifications: N-terminal acetyl (Ac); CiSEYCiiFWPF[3tBuTyr]HCiii; Ci, Cii, Ciii on TATA scaffold
B14: BCY20065 (peptide)
peptide: Ac-CSEYCF[Phe(4-CF3)]PFYHC
modifications: linker 1-5-12 via TATA
B15: BCY18217 (peptide)
peptide: Ac-CSEYCFWPFYHC-NH2
modifications: linker 1-5-12 via TATA
B16: BCY20576 (peptide)
peptide: Ac-CSEYCFWPFYFC
modifications: linker 1-5-12 via TATA
B17: BCY20093 (peptide)
peptide: Ac-CSEYCFWPF[dA]HC
modifications: linker 1-5-12 via TATA
B18: BCY20571 (peptide)
peptide: Ac-CSEYCFWPFEHC
modifications: linker 1-5-12 via TATA
B19: BCY20094 (peptide)
peptide: Ac-CSEYCFWPFY[dA]C
modifications: linker 1-5-12 via TATA
B20: BCY20566 (peptide)
peptide: Ac-CSEYCYWPFYHC
modifications: linker 1-5-12 via TATA
B21: BCY20087 (peptide)
peptide: Ac-CS[dA]YCFWPFYHC
modifications: linker 1-5-12 via TATA
B22: BCY20574 (peptide)
peptide: Ac-CSEYCFWPFYEC
modifications: linker 1-5-12 via TATA
B23: BCY20070 (peptide)
peptide: Ac-CSEYCFWPLYHC
modifications: linker 1-5-12 via TATA
B24: BCY20084 (peptide)
peptide: Ac-CSEYCFWPFYSC
modifications: linker 1-5-12 via TATA
B25: BCY20570 (peptide)
peptide: Ac-CSEYCFWPFDHC
modifications: linker 1-5-12 via TATA
B26: BCY20572 (peptide)
peptide: Ac-CSEYCFWPFYQC
modifications: linker 1-5-12 via TATA
B27: BCY20563 (peptide)
peptide: Ac-CDEYCFWPFYHC
modifications: linker 1-5-12 via TATA
B28: BCY20573 (peptide)
peptide: Ac-CSEYCFWPFYDC
modifications: linker 1-5-12 via TATA
B29: BCY20082 (peptide)
peptide: Ac-CSEYCFWPFYPC
modifications: linker 1-5-12 via TATA
B30: BCY20083 (peptide)
peptide: Ac-CSEYCFWPFYNC-NH2
modifications: linker 1-5-12 via TATA
SMILES: CC(=O)N[C@H]1CSCCC(=O)N2CN3CN(C2)C(=O)CCSC[C@H](NC(=O)[C@H](Cc2ccc(O)cc2)NC(=O)[C@H](CCC(=O)O)NC(=O)[C@H](CO)NC1=O)C(=O)N[C@@H](Cc1ccccc1)C(=O)N[C@@H](Cc1c[nH]c2ccccc12)C(=O)N1CCC[C@H]1C(=O)N[C@@H](Cc1ccccc1)C(=O)N[C@@H](Cc1ccc(O)cc1)C(=O)N[C@@H](CC(N)=O)C(=O)N[C@H](C(N)=O)CSCCC3=O
B31: BCY20568 (peptide)
peptide: Ac-CSEYCFWPYYHC
modifications: linker 1-5-12 via TATA
B32: BCY20086 (peptide)
peptide: Ac-C[dA]EYCFWPFYHC
modifications: linker 1-5-12 via TATA
B33: BCY17669 (peptide)
peptide: ACSEYCFWPFYSCA
modifications: linker 2-6-13 via TATA
B34: BCY18220 (peptide)
peptide: ACAEYCFWPFYHCA-NH2
modifications: linker 2-6-13 via TATA; N-terminus assumed
SMILES: C[C@H](N)C(=O)N[C@H]1CSCCC(=O)N2CN3CN(C2)C(=O)CCSC[C@H](NC(=O)[C@H](Cc2ccc(O)cc2)NC(=O)[C@H](CCC(=O)O)NC(=O)[C@H](C)NC1=O)C(=O)N[C@@H](Cc1ccccc1)C(=O)N[C@@H](Cc1c[nH]c2ccccc12)C(=O)N1CCC[C@H]1C(=O)N[C@@H](Cc1ccccc1)C(=O)N[C@@H](Cc1ccc(O)cc1)C(=O)N[C@@H](Cc1c[nH]cn1)C(=O)N[C@H](C(=O)N[C@@H](C)C(N)=O)CSCCC3=O
B35: BCY18225 (peptide)
peptide: ACSEYCFWAFYHCA
modifications: linker 2-6-13 via TATA
B36: BCY17671 (peptide)
peptide: ACSEYCFWPFWNCA
modifications: Ci, Cii, Ciii on TATA scaffold
B37: BCY17670 (peptide)
peptide: ACSEYCFWPFYPCA
modifications: linker 2-6-13 via TATA
B38: BCY18221 (peptide)
peptide: ACSAYCFWPFYHCA
modifications: linker 2-6-13 via TATA
B39: BCY18228 (peptide)
peptide: ACSEYCFWPFYACA
modifications: linker 2-6-13 via TATA
B40: BCY17672 (peptide)
peptide: ACSEYCFWPFFNCA
modifications: Ci, Cii, Ciii on TATA scaffold
B41: BCY18227 (peptide)
peptide: ACSEYCFWPFAHCA
modifications: linker 2-6-13 via TATA
B42: BCY19777 (peptide)
peptide: ACSEYCFWPFYLCA
modifications: linker 2-6-13 via TATA
B43: BCY20067 (peptide)
peptide: CSEYCFWXFYHC
modifications: N-terminal acetyl (Ac); CiSEYCiiFW[Cis-HyP]FYHCiii; Ci, Cii, Ciii on TATA scaffold
B44: BCY20569 (peptide)
peptide: CSEYCFWPXYHC
modifications: N-terminal acetyl (Ac); CiSEYCiiFWP[4Pal]YHCiii; Ci, Cii, Ciii on TATA scaffold
B45: BCY20069 (peptide)
peptide: CSEYCFWXFYHC
modifications: N-terminal acetyl (Ac); CiSEYCiiFW[Pip]FYHCiii; Ci, Cii, Ciii on TATA scaffold
B46: BCY20062 (peptide)
peptide: CSEYCFXPFYHC
modifications: not fully specified; N-terminal acetyl (Ac); CiSEYCiiF[AzaTrp]PFYHCiii; Ci, Cii, Ciii on TATA scaffold
B47: BCY20058 (peptide)
peptide: CSEYCFXPFYHC
modifications: N-terminal acetyl (Ac); CiSEYCiiF[5FTrp]PFYHCiii; Ci, Cii, Ciii on TATA scaffold
B48: BCY20072 (peptide)
peptide: CSEYCFWPXYHC
modifications: N-terminal acetyl (Ac); CiSEYCiiFWP[3MePhe]YHCiii; Ci, Cii, Ciii on TATA scaffold
B49: BCY20222 (peptide)
peptide: Ac-CSEYCFWPFFLC
modifications: linker 1-5-12 via TATA
B50: BCY20051 (peptide)
peptide: CSEYCXWPFYHC
modifications: N-terminal acetyl (Ac); CiSEYCii[2FPhe]WPFYHCiii; Ci, Cii, Ciii on TATA scaffold
B51: BCY20068 (peptide)
peptide: CSEYCFWXFYHC
modifications: N-terminal acetyl (Ac); CiSEYCiiFW[Aze]FYHCiii; Ci, Cii, Ciii on TATA scaffold
B52: BCY20096 (peptide)
peptide: CSXYCFWPFYHC
modifications: N-terminal acetyl (Ac); CiS[K(PYA)]YCiiFWPFYHCiii; Ci, Cii, Ciii on TATA scaffold
B53: BCY20057 (peptide)
peptide: CSEYCFXPFYHC
modifications: N-terminal acetyl (Ac); CiSEYCiiF[6FTrp]PFYHCiii; Ci, Cii, Ciii on TATA scaffold

target: T1, Human TREM2 extracellular domain (ECD), residues 19-131, C-terminally biotinylated, deglycosylated (human, UniProt Q9NZC2 19-131, C-terminally biotinylated; deglycosylated); experiment: BLI steady state, deglycosylated human TREM2 ECD on sensor
T1 construct: range 19-131; loaded on Superstreptavidin biosensors; also called triggering receptor expressed on myeloid cells 2; Human BLI (deglycosylated)
T1 sequence (looked up): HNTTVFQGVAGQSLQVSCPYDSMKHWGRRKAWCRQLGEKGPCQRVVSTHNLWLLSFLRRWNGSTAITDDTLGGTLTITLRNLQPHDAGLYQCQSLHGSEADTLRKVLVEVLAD
Experimental: Bio-layer interferometry was performed on an Octet RED384® system (Sartorius) at 25° C. in a buffer containing 50 mM HEPES (pH 7.5), 150 mM NaCl and 0.1% Tween. […] Reference wells containing no bicycle peptides and reference sensors loaded with an unrelated protein (His-tagged MLLT3a) were subjected to the same assay protocol and double reference subtraction was used for processing to account for non-specific binding. Traces were analysed using Octet Software (Version 11.0). Association and dissociation curves were globally fit and the response at equilibrium (Req) plotted against concentration to obtain steady-state KD values.

First: B1
Second: B2
The Kd of the first is 13-fold higher: 4690 nM for the first, 375 nM for the second.

B3 and B4 are within 1.5-fold of each other in Kd: 1460 nM for the first, 1300 nM for the second.

B5 and B6 are within 1.5-fold of each other in Kd: 690 nM for the first, 700 nM for the second.

Going from B7 to B8, the Kd rises from 2000 nM to 18600 nM (9.3-fold).

Going from B9 to B10, the Kd rises from 1620 nM to 5240 nM (3.2-fold).

Compared with B11, B12 is 29-fold lower in Kd: 30000 nM for the first, 1020 nM for the second.

First: B13
Second: B14
The Kd of the first is 19-fold lower: 375 nM for the first, 7280 nM for the second.

Compared with B15, B16 is 1.5-fold higher in Kd: 900 nM for the first, 1350 nM for the second.

Going from B17 to B18, the Kd falls from 4680 nM to 2210 nM (2.1-fold). The second binds more tightly here.

B19 and B20 are within 1.5-fold of each other in Kd: 2530 nM for the first, 2140 nM for the second.

Going from B21 to B22, the Kd falls from 18000 nM to 1740 nM (10-fold). The second binds more tightly here.

B23 and B24 are within 1.5-fold of each other in Kd: 1660 nM for the first, 1650 nM for the second.

Compared with B25, B26 is 1.8-fold lower in Kd: 1870 nM for the first, 1060 nM for the second. The second binds more tightly here.

Compared with B27, B28 is 1.6-fold lower in Kd: 3170 nM for the first, 1960 nM for the second. The second binds more tightly here.

B29 and B30 are within 1.5-fold of each other in Kd: 1930 nM for the first, 1840 nM for the second.

Compared with B31, B32 is 7.9-fold higher in Kd: 2280 nM for the first, 18000 nM for the second. The first binds more tightly here.

First: B33
Second: B34
The Kd of the first is 1.7-fold lower: 1200 nM for the first, 2000 nM for the second. The first binds more tightly here.

Compared with B35, B36 is 16-fold lower in Kd: 14000 nM for the first, 900 nM for the second.

B37 and B38 are within 1.5-fold of each other in Kd: 1700 nM for the first, 1800 nM for the second.

B39 and B40 are within 1.5-fold of each other in Kd: 2600 nM for the first, 2000 nM for the second.

Going from B41 to B42, the Kd falls from 3100 nM to ~1200 nM (2.6-fold).

First: B43
Second: B44
The Kd of the first is 6.2-fold higher: 23600 nM for the first, 3800 nM for the second.

Compared with B45, B46 is 2.4-fold higher in Kd: 1460 nM for the first, 3440 nM for the second.

B47 and B48 are within 1.5-fold of each other in Kd: 1430 nM for the first, 1670 nM for the second.

B49 and B50 are within 1.5-fold of each other in Kd: 1570 nM for the first, 2040 nM for the second.

B51 and B52 are within 1.5-fold of each other in Kd: 2540 nM for the first, 2500 nM for the second.

B53 was tested, and the Kd was 2560 nM.
